Results taken from patent publication EP1086224B1.

How the values were obtained:
[1] = biological target: cell-surface HLA-A3 on Hmy2.C1R-A3 transfectants with pn2a.A3 peptide (human)
[2] = biological target: cell-surface HLA-A3 on Hmy2.C1R-A3 transfectants with pn2a.A3 peptide (human); remark: listed apart in the source
[3] = biological target: cell-surface HLA-A2 on Hmy2.C1R-A2 transfectants with HIV gag 77-85 peptide (human; HIV), A*02:0
[4] = biological target: cell-surface HLA-A1 on Hmy2.C1R-A1 transfectants with ornithine decarboxylase 309-317 (OD 309) peptide (human); assay: HLA stabilization assay, acid-stripped Hmy2.C1R-A1 cells with OD 309 peptide and BB7.5 mAb, flow cytometry
[5] = biological target: cell-surface HLA-A1 on Hmy2.C1R-A1 transfectants with ornithine decarboxylase 309-317 (OD 309) peptide (human); assay: competition with 2.5 µM myc-hβ2m on Hmy2.C1R-A1 cells with OD 309 peptide, 9E10 anti-myc, flow cytometry
[6] = biological target: cell-surface HLA-A2 on Hmy2.C1R-A2 target cells with HTLV-1 TAX 11-19 peptide (human; HTLV-1), A*02:0; assay: cell-based or functional assay

Substance | fold better stabilization than wild-type hβ2m at a molar level [1] [fold] | fold better inhibition of myc-hβ2m binding than wild-type hβ2m at a molar level [2] [fold] | fold better inhibition of myc-hβ2m binding than wild-type hβ2m at a molar level [3] [fold] | fold better stabilization than wild-type hβ2m at a molar level [4] [fold] | fold better inhibition of myc-hβ2m binding than wild-type hβ2m at a molar level [5] [fold] | enhancement of target cell lysis, fold more effective at a molar level than wild-type hβ2m [6] [fold] | hβ2m concentration giving maximal lysis by the TAX-specific CTL clone [6] [µM]
hβ2m S55V (human β2-microglobulin with valine at position 55) (from UniProt P61769 21-119) | 3 | 2.5 | 2.5 | 2 | 2.5 | 4 | –
wild-type human β2-microglobulin (hβ2m), recombinant (from UniProt P61769 21-119) | – | – | – | – | – | – | 8
